# Test results from US20250249092A1 (TORAY INDUSTRIES, published 2025).
# Target: T1, CAPRIN-1 on the cell membrane surface of mouse cancer cells (mouse, UniProt Q60865 2-707)
# T1 construct: whole, on cells; also called CAPRIN-1 protein
# T1 sequence (looked up): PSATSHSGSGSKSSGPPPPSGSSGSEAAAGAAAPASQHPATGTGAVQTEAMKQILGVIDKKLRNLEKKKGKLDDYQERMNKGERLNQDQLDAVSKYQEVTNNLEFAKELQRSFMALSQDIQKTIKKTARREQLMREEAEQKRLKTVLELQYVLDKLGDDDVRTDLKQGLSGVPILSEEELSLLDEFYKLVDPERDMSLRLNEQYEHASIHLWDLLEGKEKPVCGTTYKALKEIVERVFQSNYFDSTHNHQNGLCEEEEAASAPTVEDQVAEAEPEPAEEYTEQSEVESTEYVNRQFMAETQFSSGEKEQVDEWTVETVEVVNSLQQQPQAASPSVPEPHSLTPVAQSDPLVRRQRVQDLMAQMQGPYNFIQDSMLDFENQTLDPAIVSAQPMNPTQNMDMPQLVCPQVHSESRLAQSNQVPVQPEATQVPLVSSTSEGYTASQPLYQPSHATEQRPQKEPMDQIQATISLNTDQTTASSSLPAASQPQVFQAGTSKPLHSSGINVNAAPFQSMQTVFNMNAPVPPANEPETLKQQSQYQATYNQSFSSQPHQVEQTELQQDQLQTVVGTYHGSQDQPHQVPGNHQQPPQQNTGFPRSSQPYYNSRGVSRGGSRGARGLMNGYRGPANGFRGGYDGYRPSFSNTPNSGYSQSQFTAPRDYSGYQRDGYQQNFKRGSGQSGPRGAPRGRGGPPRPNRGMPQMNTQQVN
# Test: 4T1 cells
row,Binder,binding result
1,"Conjugate 30 (antibody, V domains shown, mouse chimeric antibody #2 (mouse IgG constant regions) + resiquimod, MC-Val-Cit-PAB linker) VH: EQSLVESGGGLVQPGGSLRLSCAASGFSLSSHSLGWVRQAPGKGLEWIGDIRSGGSAYYANWAKGRFTISRDNSKNTLYLQMNSLRAEDTAVYYCTRTNGPSDLTNRLDLWGQGTLVTVSS VL: QVLTQSPSSLSASVGDRVTINCQASQSLYNNENLAWFQQKPGKVPKRLIYGASTLASGVSSRFSGSGSGTEFTLTISSLQCEDFAIYYCLGEFSCGSADCFAFGGGTKVEIK",binds
2,"Conjugate 34 (antibody, V domains shown, mouse chimeric antibody #2 (mouse IgG constant regions) + resiquimod derivative, SATA and SMCC linkers) VH: EQSLVESGGGLVQPGGSLRLSCAASGFSLSSHSLGWVRQAPGKGLEWIGDIRSGGSAYYANWAKGRFTISRDNSKNTLYLQMNSLRAEDTAVYYCTRTNGPSDLTNRLDLWGQGTLVTVSS VL: QVLTQSPSSLSASVGDRVTINCQASQSLYNNENLAWFQQKPGKVPKRLIYGASTLASGVSSRFSGSGSGTEFTLTISSLQCEDFAIYYCLGEFSCGSADCFAFGGGTKVEIK",binds
3,"Conjugate 29 (antibody, V domains shown, mouse chimeric antibody #1 (mouse IgG constant regions) + resiquimod, MC-Val-Cit-PAB linker) VH: AVTLDESGGGLQMSRGGLSLVCKASGFDFSSYQMNWIRQAPGKGLEFVAAINKFGNSTGHGAAVKGRVTISRDNGQSTVRLQLNNLRAEDTAIYFCTKHAYGYCGSGTWCAAGEIDAWGHGTEVIVSS VL: QAASTQPSSVSANPGETVEITCSGGGSYSYGWFQQKSPGSAPVTVIYYNNKRPSDIPSRFSGSKSGSTGTLTITGVQADDEAVYYCGSGDSTDTAVFGAGTTLTVLG",binds
4,"Conjugate 31 (antibody, V domains shown, mouse chimeric antibody #3 (mouse IgG constant regions) + resiquimod, MC-Val-Cit-PAB linker) VH: AVTLDESGGGLQTPGGGLSLVCKASGFTFSSFDMGWVRQAPGKGLEFVAQINDAGSRTWYATAVKGRATISRDNGQTTVRLQLNNLRAEDTGTYYCTRGSGYVGAGAIDAWGHGTEVIVS VL: AALTQPSSVSANPGETVKITCSGGSGYYGWYQQQKSPGSAPVTVIYQNDKRPSDIPSRFSGSGSGSTNTLTITGVQAEDEAVYFCGRYDSTDSGIFGAGTTLTVL",binds
5,"Conjugate 33 (antibody, V domains shown, mouse chimeric antibody #1 (mouse IgG constant regions) + resiquimod derivative, SATA and SMCC linkers) VH: AVTLDESGGGLQMSRGGLSLVCKASGFDFSSYQMNWIRQAPGKGLEFVAAINKFGNSTGHGAAVKGRVTISRDNGQSTVRLQLNNLRAEDTAIYFCTKHAYGYCGSGTWCAAGEIDAWGHGTEVIVSS VL: QAASTQPSSVSANPGETVEITCSGGGSYSYGWFQQKSPGSAPVTVIYYNNKRPSDIPSRFSGSKSGSTGTLTITGVQADDEAVYYCGSGDSTDTAVFGAGTTLTVLG",binds
6,"Conjugate 35 (antibody, V domains shown, mouse chimeric antibody #3 (mouse IgG constant regions) + resiquimod derivative, SATA and SMCC linkers) VH: AVTLDESGGGLQTPGGGLSLVCKASGFTFSSFDMGWVRQAPGKGLEFVAQINDAGSRTWYATAVKGRATISRDNGQTTVRLQLNNLRAEDTGTYYCTRGSGYVGAGAIDAWGHGTEVIVS VL: AALTQPSSVSANPGETVKITCSGGSGYYGWYQQQKSPGSAPVTVIYQNDKRPSDIPSRFSGSGSGSTNTLTITGVQAEDEAVYFCGRYDSTDSGIFGAGTTLTVL",binds

# Target: T2, CAPRIN-1 on the cell membrane surface of human cancer cells (human, UniProt Q14444 2-709)
# T2 construct: whole, on cells; also called CAPRIN-1 protein
# T2 sequence (looked up): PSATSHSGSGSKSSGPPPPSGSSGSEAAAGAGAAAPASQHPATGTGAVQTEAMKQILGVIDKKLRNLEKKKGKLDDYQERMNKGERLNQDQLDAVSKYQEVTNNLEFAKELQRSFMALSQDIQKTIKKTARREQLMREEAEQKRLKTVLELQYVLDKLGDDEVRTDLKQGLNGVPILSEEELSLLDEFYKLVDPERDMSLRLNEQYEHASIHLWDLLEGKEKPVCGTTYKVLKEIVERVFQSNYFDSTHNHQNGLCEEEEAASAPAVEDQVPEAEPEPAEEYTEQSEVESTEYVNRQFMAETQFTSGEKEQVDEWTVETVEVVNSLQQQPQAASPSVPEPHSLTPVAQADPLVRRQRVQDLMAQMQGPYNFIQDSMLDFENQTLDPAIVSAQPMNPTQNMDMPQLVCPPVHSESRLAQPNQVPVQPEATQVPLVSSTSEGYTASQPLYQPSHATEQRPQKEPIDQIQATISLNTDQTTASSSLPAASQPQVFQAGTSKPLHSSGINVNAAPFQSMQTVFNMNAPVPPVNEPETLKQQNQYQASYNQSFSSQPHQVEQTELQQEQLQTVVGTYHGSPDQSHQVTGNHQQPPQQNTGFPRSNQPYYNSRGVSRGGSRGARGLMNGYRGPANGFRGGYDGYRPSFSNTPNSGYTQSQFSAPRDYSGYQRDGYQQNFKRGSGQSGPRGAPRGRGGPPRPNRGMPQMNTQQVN
# Test: BT474 cells, as shown in Example 5
row,Binder,binding result
1,"Conjugate 8 (antibody, human IgG1, V domains shown, humanized antibody #2 (human IgG1) + resiquimod, MC-Val-Cit-PAB linker) VH: EQSLVESGGGLVQPGGSLRLSCAASGFSLSSHSLGWVRQAPGKGLEWIGDIRSGGSAYYANWAKGRFTISRDNSKNTLYLQMNSLRAEDTAVYYCTRTNGPSDLTNRLDLWGQGTLVTVSS VL: QVLTQSPSSLSASVGDRVTINCQASQSLYNNENLAWFQQKPGKVPKRLIYGASTLASGVSSRFSGSGSGTEFTLTISSLQCEDFAIYYCLGEFSCGSADCFAFGGGTKVEIK",binds
2,"Conjugate 12 (antibody, human IgG1, V domains shown, humanized antibody #6 (V regions of #2; human IgG1 S239D/I332E) + resiquimod, MC-Val-Cit-PAB linker) VH: EQSLVESGGGLVQPGGSLRLSCAASGFSLSSHSLGWVRQAPGKGLEWIGDIRSGGSAYYANWAKGRFTISRDNSKNTLYLQMNSLRAEDTAVYYCTRTNGPSDLTNRLDLWGQGTLVTVSS VL: QVLTQSPSSLSASVGDRVTINCQASQSLYNNENLAWFQQKPGKVPKRLIYGASTLASGVSSRFSGSGSGTEFTLTISSLQCEDFAIYYCLGEFSCGSADCFAFGGGTKVEIK",binds
3,"Conjugate 22 (antibody, human IgG1, V domains shown, humanized antibody #2 (human IgG1) + resiquimod derivative, SATA and SMCC linkers) VH: EQSLVESGGGLVQPGGSLRLSCAASGFSLSSHSLGWVRQAPGKGLEWIGDIRSGGSAYYANWAKGRFTISRDNSKNTLYLQMNSLRAEDTAVYYCTRTNGPSDLTNRLDLWGQGTLVTVSS VL: QVLTQSPSSLSASVGDRVTINCQASQSLYNNENLAWFQQKPGKVPKRLIYGASTLASGVSSRFSGSGSGTEFTLTISSLQCEDFAIYYCLGEFSCGSADCFAFGGGTKVEIK",binds
4,"Conjugate 26 (antibody, human IgG1, V domains shown, humanized antibody #6 (V regions of #2; human IgG1 S239D/I332E) + resiquimod derivative, SATA and SMCC linkers) VH: EQSLVESGGGLVQPGGSLRLSCAASGFSLSSHSLGWVRQAPGKGLEWIGDIRSGGSAYYANWAKGRFTISRDNSKNTLYLQMNSLRAEDTAVYYCTRTNGPSDLTNRLDLWGQGTLVTVSS VL: QVLTQSPSSLSASVGDRVTINCQASQSLYNNENLAWFQQKPGKVPKRLIYGASTLASGVSSRFSGSGSGTEFTLTISSLQCEDFAIYYCLGEFSCGSADCFAFGGGTKVEIK",binds
